Patent US9212226B2, “Amino acid sequences directed against CXCR4 and other GPCRs and compounds comprising the same” (Ablynx N.V., priority 2008, dated 2015)

Target: CXCR4 (Homo sapiens, UniProt P61073)
Test: [125I]-238D4 competition binding on membranes from HEK293T cells transiently expressing CXCR4
Details: membranes from HEK293T cells transiently expressing CXCR4; mean ± S.E.M.

Sequence of CXCR4 (P61073 whole entry): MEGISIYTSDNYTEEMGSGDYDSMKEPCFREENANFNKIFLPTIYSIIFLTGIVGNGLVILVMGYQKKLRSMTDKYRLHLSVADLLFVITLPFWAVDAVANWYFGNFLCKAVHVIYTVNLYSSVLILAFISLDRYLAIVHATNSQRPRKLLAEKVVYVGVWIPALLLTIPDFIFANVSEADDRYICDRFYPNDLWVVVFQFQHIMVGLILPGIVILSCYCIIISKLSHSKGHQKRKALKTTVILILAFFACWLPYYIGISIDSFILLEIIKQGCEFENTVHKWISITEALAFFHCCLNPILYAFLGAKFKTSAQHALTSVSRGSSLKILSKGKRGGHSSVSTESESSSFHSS

B1: 238D4: Nanobody (VHH) raised against human CXCR4, SEQ ID NO: 239 (protein)
VHH: EVQLMESGGGLVQAGGSLRLSCAASGRTFNNYAMGWFRRAPGKEREFVAAITRSGVRSGVSAIYGDSVKDRFTISRDNAKNTLYLQMNSLKPEDTAVYTCAASAIGSGALRRFEYDYSGQGTQVTVSS
modifications: Nanobody, Nanobody constructs or fragments thereof
  Displacem. (%) of [125I]-238D4 (maximal displacement): 103 ± 1%
